The record followed here is patent US20090181459A1 (published 2009).

For test [1], the target named is mouse glucocorticoid-induced TNF receptor ligand (mGITRL), expressed on the cell surface (mouse) (UniProt Q7TS55). As to the kind of experiment: flow cytometry, spleen cells gated on F4/80+ macrophages; isotype control background. (A flow cytometer gives signals particle by particle.)
The target is the same in test [2]. As to the kind of experiment: flow cytometry, spleen cells gated on B220+ B cells; isotype control background.
The target in test [3] is mouse glucocorticoid-induced tumor necrosis factor receptor (mGITR), expressed on the cell surface (mouse) (UniProt O35714). As to the kind of experiment: flow cytometry on Th2 clone R2.4; isotype control background.
Test [4] has as its target mouse glucocorticoid-induced TNF receptor ligand (mGITRL), expressed on the cell surface (mouse) (UniProt Q7TS55). As to the kind of experiment: flow cytometry, peritoneal cells gated on F4/80+; isotype control background.
Test [5] addresses mouse glucocorticoid-induced tumor necrosis factor receptor (mGITR), expressed on the cell surface (mouse) (UniProt O35714). Put plainly: flow cytometry on Th1 clone R2.2; isotype control background.
The target in test [6] is T1, mouse glucocorticoid-induced tumor necrosis factor receptor (mGITR), expressed on the cell surface (mouse, UniProt O35714 20-228).
T1 sequence (looked up): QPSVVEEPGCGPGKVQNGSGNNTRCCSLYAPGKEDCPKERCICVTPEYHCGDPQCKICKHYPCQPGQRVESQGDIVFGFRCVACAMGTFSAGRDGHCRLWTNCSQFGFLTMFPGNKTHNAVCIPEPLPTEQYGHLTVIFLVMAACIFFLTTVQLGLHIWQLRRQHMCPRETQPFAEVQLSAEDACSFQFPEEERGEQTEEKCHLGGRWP
Put plainly: cell-based or functional assay.

In the case of “isotype control antibody (rat anti-canine CD8 antibody, IgG1)”, the Median fluorescence intensity (MFI) in test [1] was 25.4; in test [2], 7.7; in test [3], 50.5; in test [5], 35.2. The molecule also yielded an MFI in test [4] of 255.

B1: mouse glucocorticoid-induced TNF receptor ligand (mGITRL), expressed on the cell surface (ligand)
chain: MEEMPLRESSPQRAERCKKSWLLCIVALLLMLLCSLGTLIYTSLKPTAIESCMVKFELSSSKWHMTSPKPHCVNTTSDGKLKILQSGTYLIYGQVIPVDKKYIKDNAPFVVQIYKKNDVLQTLMNDFQILPIGGVYELHAGDNIYLKFNSKDHIQKNNTYWGIILMPDLPFIS
Regarding B1, the “Luciferase activity (NF-kB reporter plasmid), 48-h incubation” value in test [6] was 6 fold.
